Here are results for three molecules from US20090124537A1.

Bridges are numbered along the chain shown (N, C = ends). Where no end group is shown, it is not given here.

In assay [1] the target is BMP-7 receptor of ROS cell plasma membrane fraction (ROS cell type II BMP receptor) (rat). The assay can be described thus: cell-based or functional assay.
The target is the same in assay [2]. The assay can be described thus: radioligand receptor assay, displacement of 125I-BMP-7 from ROS cell plasma membranes. Background: Displacement assays read how much labelled ligand stays bound in the presence of the test substance.
Assay [3] shares this target. The assay can be described thus: radioligand receptor assay, 125I-BMP-7 on ROS cell plasma membranes.

B1: F2-2 (peptide)
peptide: CYFDDSSNVIC
modifications: disulfide 1-11 (inferred)
The term IC50 denotes the concentration that inhibits the measured activity by half. The low end stands for greater potency, the high end for weaker potency. As to B1, in assay [1], the potentiation of BMP-7 induced cell responsiveness at 0.6-60 µM peptide (ROS cell alkaline phosphatase assay) is 20%. Besides, the IC50 in assay [2] came to 1000 nM.

B2: F1-2 (peptide)
peptide: CFRDLGWQDWIIAPC
modifications: disulfide 1-15 (inferred)
In turn, B2 registered a 50% inhibition of the cell responsive to BMP-7 (ROS cell alkaline phosphatase assay) in assay [1] of 10 µM. For the same molecule, the concentration required to inhibit the binding of 125I-labeled BMP-7 in assay [2] amounted to 179 µM.

B3: H-2C (peptide)
peptide: CCFINPETVCC
modifications: cyclized (disulfide bond between cysteines)
For B3, in assay [1], the 50% inhibition of cellular responsiveness to BMP-7 (ROS cell alkaline phosphatase assay) was found to be 5 µM. For the same molecule, in assay [3], the peptide concentration that potentiated the binding of 125I-labeled BMP-7 amounted to 8 µM.
